Data: patent US20170165338A1

Molecular target: HLA-A*02 (human)
Assay: UV-exchange b2m ELISA

## SLTEVSLPL […]
  peptide exchange yield: 50 to 75%
